Assay results from patent US20100003237.

Target: Soluble rat tail collagen Type I (UniProt P02454)

Chain of Histidine (His)-tagged purified recombinant human cathepsin-L (R&D Systems, Cat# 952-CY) (chain, as listed by the source): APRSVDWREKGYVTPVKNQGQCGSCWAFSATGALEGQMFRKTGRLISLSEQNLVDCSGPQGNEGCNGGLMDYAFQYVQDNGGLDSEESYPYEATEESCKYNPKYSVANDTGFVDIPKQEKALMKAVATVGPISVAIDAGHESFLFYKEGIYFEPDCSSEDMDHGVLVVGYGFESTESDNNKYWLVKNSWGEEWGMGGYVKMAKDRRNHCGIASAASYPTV
Chain of cathepsin D (R&D systems, activated) (chain, as listed by the source): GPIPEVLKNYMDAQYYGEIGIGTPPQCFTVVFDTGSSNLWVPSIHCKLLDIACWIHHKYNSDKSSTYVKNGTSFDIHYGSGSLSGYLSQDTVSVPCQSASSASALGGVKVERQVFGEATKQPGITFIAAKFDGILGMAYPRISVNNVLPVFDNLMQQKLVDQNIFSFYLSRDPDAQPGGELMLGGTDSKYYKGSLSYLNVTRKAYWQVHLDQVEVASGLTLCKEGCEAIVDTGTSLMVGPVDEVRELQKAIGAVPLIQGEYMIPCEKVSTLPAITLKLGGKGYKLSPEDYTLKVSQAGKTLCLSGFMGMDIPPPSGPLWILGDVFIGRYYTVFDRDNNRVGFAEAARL

| Substance | degradation of soluble rat tail collagen Type I (1 hour at 37° C., SDS-Page gels, Coomassie Blue staining) |
| --- | --- |
| Bacterial collagenase (Sigma Chemicals) | bacterial collagenase degraded rat collagen at both pH 5.0 and pH 8.0 |
| cathepsin D (R&D systems, activated) | Cathepsins B, D and S showed some slight degradation of rat collagen at the manufacture specified pH and no degradation of rat collagen at pH 8.0 |
| Histidine (His)-tagged purified recombinant human cathepsin-L (R&D Systems, Cat# 952-CY) | cathepsin-L was the only enzyme that was active at pH 5.0, but not at pH 8.0 |
| cathepsin B (R&D systems, activated) | Cathepsins B, D and S showed some slight degradation of rat collagen at the manufacture specified pH and no degradation of rat collagen at pH 8.0 |
